We go through one molecule from patent publication US20140178935A1 (AVEO PHARMACEUTICALS, published 2014).

The target of this assay is T1, recombinant human HGF (R&D Systems, Catalog No. 294-HGN-025) (human, UniProt P14210 32-728).
T1 construct: Mature HGF is a disulfide-linked heterodimer of alpha and beta chain cut from one precursor; also called rhHGF (R&D Systems); rhHGF
In words: competition ELISA (DELFIA): antibody inhibits c-Met binding to plate-coated HGF. On the technique in general: In an ELISA, binding on a coated surface is turned into a signal by an enzyme label.

One may read the IC50 as the midpoint of a concentration-inhibition curve.

T1 sequence (P14210 32-728 limits assumed): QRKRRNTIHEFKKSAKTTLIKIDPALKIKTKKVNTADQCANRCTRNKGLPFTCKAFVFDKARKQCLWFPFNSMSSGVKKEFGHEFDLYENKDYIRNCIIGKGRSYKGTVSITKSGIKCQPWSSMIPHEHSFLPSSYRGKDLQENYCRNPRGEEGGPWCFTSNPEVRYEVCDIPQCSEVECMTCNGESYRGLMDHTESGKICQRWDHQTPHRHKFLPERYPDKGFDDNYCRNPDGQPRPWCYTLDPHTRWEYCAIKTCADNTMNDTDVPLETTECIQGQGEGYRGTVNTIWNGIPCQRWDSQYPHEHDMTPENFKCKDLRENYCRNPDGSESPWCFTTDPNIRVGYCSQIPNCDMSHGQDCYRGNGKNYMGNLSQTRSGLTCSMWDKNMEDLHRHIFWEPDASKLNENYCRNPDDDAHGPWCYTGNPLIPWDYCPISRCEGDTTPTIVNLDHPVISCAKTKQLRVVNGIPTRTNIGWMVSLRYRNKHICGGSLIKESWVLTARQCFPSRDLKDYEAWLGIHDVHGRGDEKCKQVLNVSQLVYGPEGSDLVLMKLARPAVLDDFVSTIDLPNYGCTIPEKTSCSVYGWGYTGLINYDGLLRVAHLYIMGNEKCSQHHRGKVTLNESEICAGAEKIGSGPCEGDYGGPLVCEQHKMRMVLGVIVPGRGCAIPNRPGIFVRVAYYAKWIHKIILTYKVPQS

B1: anti-hHGF monoclonal antibody 2B8 (antibody, mouse IgG1, kappa)
heavy: QVQLQQPGAELVKPGTSVKLSCKASGYTFTTYWMHWVNQRPGQGLEWIGEINPTNGHTNYNEKFKSKATLTVDKSSSTAYMQLSSLTSEDSAVYYCARNYVGSIFDYWGQGTTLTVSSAKTTPPSVYPLAPGSAAQTNSMVTLGCLVKGYFPEPVTVTWNSGSLSSGVHTFPAVLQSDLYTLSSSVTVPSSTWPSETVTCNVAHPASSTKVDKKIVPRDCGCKPCICTVPEVSSVFIFPPKPKDVLTITLTPKVTCVVVDISKDDPEVQFSWFVDDVEVHTAQTQPREEQFNSTFRSVSELPIMHQDWLNGKEFKCRVNSAAFPAPIEKTISKTKGRPKAPQVYTIPPPKEQMAKDKVSLTCMITDFFPEDITVEWQWNGQPAENYKNTQPIMDTDGSYFVYSKLNVQKSNWEAGNTFTCSVLHEGLHNHHTEKSLSHSPGK
light: NIVMTQSPKSMSMSVGERVTLSCKASENVVSYVSWYQQKPAQSPKLLIYGASNRNTGVPDRFTGSGSATDFTLTISSVRAEDLADYHCGQSYNYPYTFGGGTRLEIKRADAAPTVSIFPPSSEQLTSGGASVVCFLNNFYPKDINVKWKIDGSERQNGVLNSWTDQDSKDSTYSMSSTLTLTKDEYERHNSYTCEATHKTSTSPIVKSFNRNEC
notes: Murine IgG1 kappa from hybridoma; also called murine 2B8; mouse 2B8
Regarding B1, the IC50 worked out at 5.57 nM.
